Experiments:
[1] = target: PLK1-T210E fused to CFP, YFP or mTurquoise 2 (human) (UniProt P53350); assay: FRET or BRET; FRET by confocal microscopy of fixed HEK293T cells co-transfected with YFP and mTurquoise constructs; 'FRET and co-localization analyzer' ImageJ plug-in
[2] = target: full-length, wild-type PLK1 (Flag-, Myc- or V5-tagged) (human) (UniProt P53350); assay: cross-linking; BS3 (20:1 crosslinker-protein) added to lysates of HEK293T cells for 30 min, quenched; IPs with anti-V5 and anti-Myc; SDS-PAGE and western blot with PLK1- and Bora-specific antibodies
[3] = target: endogenous PLK1 of HeLa-PLK1–3xMyc cells (human (endogenous in HeLa)) (UniProt P53350); assay: SEC; lysate of HeLa-PLK1–3xMyc cells synchronized in G2 with the CDK1 inhibitor RO3306; Superose 3.2/300, 50 mM Tris pH 7.5, 150 mM NaCl, 20 mM CHAPS, 1 mM DTT, 4 °C; fractions blotted
[4] = target: PLK1 Polo-Box domain (Flag- or Myc-tagged) (human); assay: co-IP; lysates of cells co-expressing differently tagged PLK1 PBD incubated with increasing amounts of purified GST-Bora, then co-IP

Question: Which fold decrease of FRET emission against WT PLK1 [1] does the source give for “PLK1-T210E fused to CFP, YFP or mTurquoise 2 (from UniProt P53350 1-603) (enzyme)” here?
Answer: 6 to 8 fold

Question: With “full-length, wild-type PLK1 (Flag-, Myc- or V5-tagged) (from UniProt P53350 1-603) (enzyme)” as the substance, how does the stoichiometry N [2] read?
Answer: 2

Question: How did the stoichiometry N [3] turn out when “endogenous PLK1 of HeLa-PLK1–3xMyc cells (from UniProt P53350 1-603) (enzyme)” was run?
Answer: 2

Question: How did the increase of co-precipitated PBD with purified GST-Bora added (lane 2) against none (lane 1) [4] turn out when “PLK1 Polo-Box domain (Flag- or Myc-tagged) (domain or fragment)” was run?
Answer: 60%
